Results on one molecule are retold here after patent US20150219635A1.

The target in the experiment is IgE-Fc(E289C)_BirA, terbium chelate labelled, biotinylated, mixed with Alexa488 labelled streptavidin (human), P01854. Kind of experiment: cell-based or functional assay.
Chain of IgE-Fc(E289C)_BirA, terbium chelate labelled, biotinylated, mixed with Alexa488 labelled streptavidin (human), P01854 (P01854 other isoform, or with tags, fused parts or gaps, stated change not applied): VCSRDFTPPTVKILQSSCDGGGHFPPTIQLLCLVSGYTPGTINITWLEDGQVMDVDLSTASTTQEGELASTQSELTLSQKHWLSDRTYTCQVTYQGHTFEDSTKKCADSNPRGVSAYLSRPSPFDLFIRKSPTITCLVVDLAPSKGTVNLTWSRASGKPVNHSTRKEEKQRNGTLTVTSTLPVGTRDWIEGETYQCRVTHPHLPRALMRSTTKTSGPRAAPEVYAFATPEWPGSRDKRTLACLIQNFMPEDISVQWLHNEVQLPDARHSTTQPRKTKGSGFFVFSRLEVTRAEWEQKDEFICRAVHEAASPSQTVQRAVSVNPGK

B1: Fab7 (anti-human IgE Fab, human IgG1 Fab format) (Fab)
heavy: QVQLQQSGPGLVKPSQTLSLTCGISGDSVSSNSAAWNWLRQSPSRGLEWLGRTYYRSKWYNDYAVSMKSRITINPDTSRNQFSLQLNSVTPEDTAVYYCARDGEISYDYYYYGMDVWGRGTLVTVSSASTKGPSVFPLAPSSKSTSGGTAALGCLVKDYFPEPVTVSWNSGALTSGVHTFPAVLQSSGLYSLSSVVTVPSSSLGTQTYICNVNHKPSNTKVDKKVEPKSC
light: not shown
modifications: here or on the partner: thiol reactive terbium chelate on the Cys of E289C; biotin on the C-terminal BirA recognition motif (carrying Alexa488 labelled streptavidin)
B1 came in with a normalised FRET, mean, at [Fab] 0.152 nM of 1; a normalised FRET, mean, at [Fab] 0.45 nM of 0.2; a normalised FRET, mean, at [Fab] 1.37 nM of 1.55; a normalised FRET, mean, at [Fab] 4.4 nM of 0.1. Moreover, the normalised FRET, mean, at [Fab] 12.3 nM was 2; the normalised FRET, mean, at [Fab] 37.03 nM was determined as 9.68; the normalised FRET, mean, at [Fab] 111 nM was 28.8; the normalised FRET, mean, at [Fab] 333 nM was determined as 39.3. Also, the normalised FRET, mean, at [Fab] 1000 nM was determined as 43.4 and the normalised FRET, mean, at [Fab] 3000 nM was 41.
